Measured values taken from patent US8598081B2, “Specific delivery of agrochemicals” (priority 2010, dated 2013).

Legend:
gum arabic = assay: VHH binding to gum arabic in ELISA; design: species or system acacia tree
Protocol: Titration of VHH antibody fragments was performed on ELISA plates (Maxisorp, Nunc) coated with 100 μl per well 100 μg/ml gum arabic in 50 mM carbonate pH 9.6. Plates were coated at 4° C. overnight and coating was continued at room temperature for 1 hour on the next day. Plates were washed three times with PBS/0.05%-TWEEN®-20 and blocked with 5% skimmed milk in PBS for 1 hour. Four-fold serial dilutions of purified VHH antibody fragments were prepared in 1% MPBS/0.05%-TWEEN®-20 in polypropylene 96-well plates. Antibody concentrations ranged from 3 μg/ml to 12 ng/ml. Antibody dilutions were transferred to the gum arabic-coated plates and VHH antibody fragments were allowed to bind for 1 hour at room temperature. Bound VHH were detected with sequential incubations with monoclonal mouse anti-histidine antibodies (Abd Serotec) and rabbit anti-mouse IgG whole molecule antibodies conjugated with alkaline phosphatase (RaM/AP) (Sigma) in 1% MPBS/0.05%-TWEEN®-20. Unbound antibodies were removed by washing three times with PBS/0.05%-TWEEN®-20 after each antibody incubation. The plates were washed an additional two times with PBS and 100 μl pNPP disodium hexahydrate substrate (Sigma) was added to each well. The absorbance at 405 nm was measured and plotted as function of antibody concentration (see Table 1).

potato lectin = target: T1, potato lectin (Solanum tuberosum, UniProt Q9S8M0); assay: VHH binding to potato lectin in ELISA; conditions: Table 2; Blank (no antigen coating); VHH 3 μg/ml
T1 construct: purchased Sigma
T1 sequence (Q9S8M0 whole entry, looked up): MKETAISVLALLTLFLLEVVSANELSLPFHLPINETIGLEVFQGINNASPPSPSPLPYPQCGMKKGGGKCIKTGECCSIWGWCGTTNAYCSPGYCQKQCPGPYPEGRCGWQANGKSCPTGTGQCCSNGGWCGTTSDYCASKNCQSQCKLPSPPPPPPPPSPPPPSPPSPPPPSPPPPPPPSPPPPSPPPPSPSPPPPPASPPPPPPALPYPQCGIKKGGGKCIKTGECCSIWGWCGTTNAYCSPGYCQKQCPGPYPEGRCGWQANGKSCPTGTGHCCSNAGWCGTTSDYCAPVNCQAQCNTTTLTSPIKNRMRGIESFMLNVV
Protocol: ELISA plates (Maxisorp, Nunc) coated with 100 μl per well 100 μg/ml potato lectin (Sigma) in PBS were coated at 4° C. overnight and coating was continued at room temperature for 1 hour on the next day. Plates were washed three times with PBS/0.05%-TWEEN®-20 and blocked with 5% skimmed milk in PBS for 1 hour. VHH (3 μg/ml) were transferred to the potato lectin-coated plates and VHH antibody fragments were allowed to bind for 1 hour at room temperature. Bound VHH were detected with sequential incubations with monoclonal mouse anti-histidine antibodies (Abd Serotec) and rabbit anti-mouse IgG whole molecule antibodies conjugated with alkaline phosphatase (RaM/AP) (Sigma) in 1% MPBS/0.05%-TWEEN®-20. Unbound antibodies were removed by washing three times with PBS/0.05%-TWEEN®-20 after each antibody incubation. The plates were washed an additional two times with PBS and 100 μl pNPP disodium hexahydrate substrate (Sigma) was added to each well and the absorbance at 405 nm was measured (see Table 2).

[1] = tested on: leaf surface of potato leaves; assay: VHH binding to non-fixed leaf discs, potato; design: species or system potato (variety Desiree); conditions: 5 μg/ml, detection with anti-histidine Alexa-488
Protocol: VHH binding to non-fixed leaf discs of potato (variety Desiree), black nightshade, grass, wheat or azalea was investigated. For comparison, binding of CBM3a to non-fixed leaf discs of potato (variety Desiree) was analyzed in parallel. Leaf discs were prepared by punching a fresh potato leaf with a 5 mm belt hole puncher tool. Leaf discs were put immediately in wells of a 96-well plate containing 200 μl per well 5% MPBS or PBS, and incubated for 30 minutes. Leaf discs were transferred to solutions containing 5 μg/ml VHH antibody fragment, respectively, 5 μg/ml CBM3a in 2% MPBS or PBS and incubated for 60-90 minutes. Unbound VHH or CBM3a proteins were removed by washing three times with 2% MPBS or PBS. Bound VHH or CBM3a proteins were detected with incubation with monoclonal mouse anti-histidine antibodies directly conjugated with Alexa-488 fluorescent dye (Abd Serotec) in 1% MPBS for 1 hour. Unbound antibodies were removed by washing three times with PBS. Leaf discs were put on glass slides, covered with cover slips, and analyzed by microscopy or on a macrozoom microscope system (Nikon) or a SP5 confocal microscope system (Leica).

B1: VHH 5D4: VHH sequence; SEQ ID NO:20 by order of the list (protein, listed as Lama glama)
VHH: QVQLQESGGGLVQPGGSLRLSCAASGFDMRRFGIGWFRQVAGKEREGVSCSNVHDGTTYYTNDVKGRFTIVRDNTKNMLYLQMNKLRPEDTAVYSCATTDCEATAWGTYRGYFGQGTQVTVSS
modifications: 5D4
- absorbance at 405 nm (gum arabic; Table 2, gum arabic coating, VHH 3 μg/ml): 0.530
- absorbance at 405 nm (gum arabic; [VHH] 3 μg/ml (200 nM), gum arabic − (well without gum arabic)): 0.075
- absorbance at 405 nm (potato lectin): 0.072
- binding to native potato leaf surface (fluorescence microscopy) [1]: binding leaf surface, stomata, glandular trichomes, and leaf hairs
- binding to native potato leaf surface (fluorescence microscopy) ([1]; listed as 5D4): clearly binding to trichomes, stomata and cuticle
